# According to paper PMC8649778:
# Target: APRc_(110–231)His, soluble domain of APRc fused to a C-terminal His tag (Rickettsia conorii) (UniProt Q92FY8)
# Assay: shift of migration in nonreducing SDS-PAGE with Western blot
substance,measurement,value
"APRc_(110–231)His, soluble domain of APRc fused to a C-terminal His tag (from UniProt Q92FY8 110-231) (domain or fragment)",stoichiometry N,2
